Like-named read-outs stand apart in the source and are kept apart here.

Drawing on paper doi:10.1101/2022.06.27.497739, this text covers time constant (τ) of tail engagement for 1 substance.

For experiment [1], the target named is Rpt1-I191AzF-Cy3 base (budding yeast (S. cerevisiae)) (UniProt P33299). Briefly: FRET or BRET. For orientation: Bioluminescence resonance energy transfer reports proximity on the nanometre scale.
For experiment [2] the target is unchanged. Briefly: FRET or BRET. This is another data set of the same source.

Consider “polyubiquitinated titin-I27^V15P-Tail substrate labeled with Cy5 on its unstructured initiation domain (from UniProt P0CG63 1-76)”, for which the figures for the time constant (τ) of tail engagement in experiment [1] and in experiment [2] were 10.4 s and 16.4 s, respectively.
